Source: patent US20040214282A1 (BOARD OF TRUSTEES OF THE UNIVERSITY OF ARKANSAS, published 2004)

Target: T1, recombinant I-domain of α2 integrin subunit (human, UniProt P17301 169-366)
T1 construct: domain: I-domain; Expressed from pQE30 and purified by Ni2+-chelating chromatography; also called α2-I domain
T1 sequence: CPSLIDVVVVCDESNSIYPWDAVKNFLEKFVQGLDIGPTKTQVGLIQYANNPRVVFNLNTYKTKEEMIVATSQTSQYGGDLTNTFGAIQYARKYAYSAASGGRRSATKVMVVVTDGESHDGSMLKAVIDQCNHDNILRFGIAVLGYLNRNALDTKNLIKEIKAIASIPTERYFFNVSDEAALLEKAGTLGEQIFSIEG
Assay: SPR (BIACORE 3000), P176 immobilized on a CM5 chip, α2-I as analyte, 1 mM MgCl2; Scatchard analysis of the equilibrium responses

B1: recombinant P176 (Scl1.41 recombinant protein) (other)
chain: EDSETATARTKLLEKLTELRSQSQDRVPQTSDITQAYTLWGTSYDSVELYKYLQQIEEYLQKQKYHEEQWKKEITDGLKSGALRGEKGEAGPQGEKGLPGLTGLPGLPGERGPRGPKGDRGETGAQGPVGPQGEKGEAGTPGKDGLRGPQGDPGAPGKDGAPGEKGDRGETGAQGPVGPQGEKGEAGTPGKDGAPGEKGEKGDRGETGATGAQGPQGEAGKDGAQGPVGPQGEKGETGAQGPAGPQGEKGETGAQGPAGPQGEAGQPGEKAPEKSPEVTPTPEMPEQPGEQAPEKSKEVTPAPEKWSHPQFEK
notes: Expressed in E. coli from pSL176 (scl1.M41 allele, GenBank AY452037); also called Scl P176
- Kd: 17 nM
